Laboratory results from paper doi:10.1101/2022.12.04.519021.
“And” between values parts separate entries of the source, which are not always exact repeats. Identical values can stand only once. Like-named read-outs stand apart in the source and are kept apart here.

How the values were obtained:
[1] = target: C-terminally truncated amyloid-beta fragment Aβ1-23 (human); test: SDS-PAGE and immunoblot
[2] = target: C-terminally truncated amyloid-beta fragment Aβ1-25 (human); test: SDS-PAGE and immunoblot
[3] = target: C-terminally truncated amyloid-beta fragment Aβ1-25 (human); test: SDS-PAGE and immunoblot; remark: listed apart in the source
[4] = target: C-terminally amidated amyloid-beta fragment Aβ1-24-NH2 (human); test: SDS-PAGE and immunoblot
[5] = target: C-terminally amidated amyloid-beta fragment Aβ1-24-NH2 (human); test: high-resolution LC-MS

In the case of “C-terminally truncated amyloid-beta fragment Aβ1-23 (peptide)”, the stoichiometry N [1] is reported as 3 and 2.

“C-terminally truncated amyloid-beta fragment Aβ1-25 (peptide)” was tested, and the stoichiometry N [2] was 2 and the stoichiometry N [3] was 3.

In the case of “C-terminally amidated amyloid-beta fragment Aβ1-24-NH2 (peptide)”, the stoichiometry N [4] is reported as 2 and 3 and the stoichiometry N [5] is reported as 3 and 2 and 5.
